Laboratory results taken from patent US20240350588A1 (SUNSHINE LAKE PHARMA, published 2024).

T1: human GFRAL (UniProtKB-Q6UXVO) (human, UniProt Q6UXV0 19-394)
T1 sequence (looked up): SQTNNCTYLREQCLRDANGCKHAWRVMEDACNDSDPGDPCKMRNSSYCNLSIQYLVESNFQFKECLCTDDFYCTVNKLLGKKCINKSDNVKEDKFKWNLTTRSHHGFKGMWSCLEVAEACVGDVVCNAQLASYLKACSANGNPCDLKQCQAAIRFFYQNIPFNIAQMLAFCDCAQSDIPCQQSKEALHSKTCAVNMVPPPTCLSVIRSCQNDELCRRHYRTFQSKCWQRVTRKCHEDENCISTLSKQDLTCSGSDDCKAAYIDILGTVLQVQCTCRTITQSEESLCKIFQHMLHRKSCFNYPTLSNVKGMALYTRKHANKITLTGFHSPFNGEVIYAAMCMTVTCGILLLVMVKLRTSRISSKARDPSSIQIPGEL

B1: Fc-GDF15 fusion protein M5 (Fc fusion)
chain: APEAAGGPSVFLFPPKPKDTLMISRTPEVTCVVVDVSQEDPEVQFNWYVDGVEVHNAKTKPREEQFNSTYRVVSVLTVLHQDWLNGKEYKCKVSNKGLPSSIEKTISKAKGQPREPQVYTLPPSQEEMTKNQVSLTCLVKGFYPSDIAVEWESNGQPENNYKTTPPVLDSDGSFFLYSRLTVDKSRWQEGNVFSCSVMHEALHNHYTQDSLSLSLGGGGGSGGGGSAPAPAPAPAPAPAPAPAPAPGGGGSGGGGSDHCPLGPGRCCRLHTVRASLEDLGWADWVLSPREVQVTMCIGACPSQFRAANMHAQIKTSLHRLKPDTVPAPCCVPASYNPMVLIQKTDTGVSLQTYDDLLAKDCHCI
B2: Fc-GDF15 fusion protein M8 (Fc fusion)
chain: APEAAGGPSVFLFPPKPKDTLMISRTPEVTCVVVDVSQEDPEVQFNWYVDGVEVHNAKTKPREEQFNSTYRVVSVLTVLHQDWLNGKEYKCKVSNKGLPSSIEKTISKAKGQPREPQVYTLPPSQKEMTKNQVSLTCLVKGFYPSDIAVEWESNGQPENNYKTTPPVLDSDGSFFLYSRLTVDKSRWQEGNVFSCSVMHEALHNHYTQKSLSLSLGGGGGSGGGGSAPAPAPAPAPAPAPAPAPAPGGGGSGGGGSDHCPLGPGRCCRLHTVRASLEDLGWADWVLSPREVQVTMCIGACPSQFRAANMHAQIKTSLHRLKPDTVPAPCCVPASYNPMVLIQKTDTGVSLQTYDDLLAKDCHCI
B3: Fc-GDF15 fusion protein M7 (Fc fusion)
chain: APEAAGGPSVFLFPPKPKDTLMISRTPEVTCVVVDVSQEDPEVQFNWYVDGVEVHNAKTKPREEQFNSTYRVVSVLTVLHQDWLNGKEYKCKVSNKGLPSSIEKTISKAKGQPREPQVYTLPPSQEEMTKNQVSLTCLVKGFYPSDIAVEWESNGQPENNYKTTPPVLDSDGSFFLYSRLTVDKSRWQEGNVFSCSVMHEALHNHYTQASLSLSLGGGGGSGGGGSAPAPAPAPAPAPAPAPAPAPGGGGSGGGGSDHCPLGPGRCCRLHTVRASLEDLGWADWVLSPREVQVTMCIGACPSQFRAANMHAQIKTSLHRLKPDTVPAPCCVPASYNPMVLIQKTDTGVSLQTYDDLLAKDCHCI
B4: Fc-GDF15 fusion protein M6 (Fc fusion)
chain: APEAAGGPSVFLFPPKPKDTLMISRTPEVTCVVVDVSQEDPEVQFNWYVDGVEVHNAKTKPREEQFNSTYRVVSVLTVLHQDWLNGKEYKCKVSNKGLPSSIEKTISKAKGQPREPQVYTLPPSQEEMTKNQVSLTCLVKGFYPSDIAVEWESNGQPENNYKTTPPVLDSDGSFFLYSRLTVDKSRWQEGNVFSCSVMHEALHNHYTQQSLSLSLGGGGGSGGGGSAPAPAPAPAPAPAPAPAPAPGGGGSGGGGSDHCPLGPGRCCRLHTVRASLEDLGWADWVLSPREVQVTMCIGACPSQFRAANMHAQIKTSLHRLKPDTVPAPCCVPASYNPMVLIQKTDTGVSLQTYDDLLAKDCHCI

target: T1, human GFRAL (UniProtKB-Q6UXVO); test: cell-based or functional assay

Going from B1 to B2, the “Relative activity ratio (native GDF15 EC50: Fc-GDF15 construct EC50), ERK1/2 phosphorylation HTRF in HEK293T cells expressing human GFRAL and RET” value falls from 2.47 ratio to 1.69 ratio.

First: B3
Second: B4
The “Relative activity ratio (native GDF15 EC50: Fc-GDF15 construct EC50), ERK1/2 phosphorylation HTRF in HEK293T cells expressing human GFRAL and RET” value of the first is higher: 3.16 ratio for the first, 2.71 ratio for the second.
